Results on three molecules are retold here after paper PMC6018538, “The CYP71AZ P450 Subfamily: A Driving Factor for the Diversification of Coumarin Biosynthesis in Apiaceous Plants” (Frontiers in Plant Science, 2018).

In one data set the test system is COc1ccc2cc(C)c(=O)oc2c1. The data set can be described thus: cells, lysate or membranes. The conditions noted are these: NADPH; product 8-hydroxy-3-methyl-7-methoxycoumarin.
Another data set has as its system COc1ccc2oc(=O)ccc2c1. The data set can be described thus: cells, lysate or membranes. The conditions noted are these: NADPH; product scopoletin (P04).
The test system of another data set is COc1ccc2ccc(=O)oc2c1. The data set can be described thus: cells, lysate or membranes. Particulars: NADPH; product daphnetin 7-methyl ether.
The next data set has as its system COc1cc2ccc(=O)oc2cc1O. Put plainly: cells, lysate or membranes. Particulars: NADPH; product fraxetin.
For the next data set, the target named is CYP71AZ4 (Pastinaca sativa, UniProt A0A2Z5D854). The conditions noted are these: read-out: Apparent affinity (μM) / CYP71AZ4; NADPH; product xanthotoxol.
Chain of CYP71AZ4 (A0A2Z5D854 whole entry): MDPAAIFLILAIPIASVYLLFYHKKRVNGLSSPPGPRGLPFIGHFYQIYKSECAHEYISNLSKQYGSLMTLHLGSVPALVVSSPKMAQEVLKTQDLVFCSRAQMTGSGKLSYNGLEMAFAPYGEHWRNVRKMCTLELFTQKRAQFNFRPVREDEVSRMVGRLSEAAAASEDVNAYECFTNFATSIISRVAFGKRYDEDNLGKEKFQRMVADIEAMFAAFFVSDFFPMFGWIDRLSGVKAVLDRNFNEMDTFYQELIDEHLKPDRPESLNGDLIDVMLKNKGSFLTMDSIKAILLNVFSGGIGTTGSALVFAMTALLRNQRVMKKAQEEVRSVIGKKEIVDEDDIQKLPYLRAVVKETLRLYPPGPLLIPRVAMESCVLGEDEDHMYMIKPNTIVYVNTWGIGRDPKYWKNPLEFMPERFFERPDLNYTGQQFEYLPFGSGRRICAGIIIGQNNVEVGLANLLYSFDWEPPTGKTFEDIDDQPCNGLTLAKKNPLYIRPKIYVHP
Substrate in data set [1]: O=c1ccc2cc(O)c(O)cc2o1
The data set can be described thus: cells, lysate or membranes. Particulars: NADPH; product 6,7,8-trihydroxycoumarin.

On to CYP71AZ4 (Pastinaca sativa), for which the Km turned out to be 159.9 ± 41.1 µM in the data set on COc1ccc2cc(C)c(=O)oc2c1, 9.5 ± 1.5 µM in the data set on COc1ccc2oc(=O)ccc2c1, 72.5 ± 15.2 µM in the data set with COc1ccc2ccc(=O)oc2c1 and 762.2 ± 586.4 µM in the data set with COc1cc2ccc(=O)oc2cc1O.

For `O=c1ccc2cc3ccoc3cc2o1` [psoralen], the Km on CYP71AZ4 is 11.3 ± 2.2 µM.

B1: CYP71AZ3 (Pastinaca sativa) (protein)
chain: MEPVFLFLILAFPIASVYLLFYHKKRVVGLSAPPGPPGLPFIGNFHQLYKASSTHEYLWSLSKQYGSLVTLRMGSVPILVVSSPKMAKEVLQTQDLIYCSRPAMTGMQKLSYNGLDVAFSPYTDQWRHTRKFCTLELFTQKRAQLNFRPVREQEVSRMIARLSETAAASKDVNAYEWFSNLATCIISRVAFGKRYDEDGIGKERFQRMLSEIDAMFIGFFVSDFFPMFGWIDKLSGMRDRLDRTFKDLDMFYQELIDEHLKPNRLESPTEDLIDVMLKNEGSSLTKDSMKAILLNVFNGGTGTTATVLAWAMTALLRNQGVMKKAQEEIRSVIGKKGKVDEDDFPSLPYLRAVVKETMRLYPPAPVLVPRETMESSIIGEDKDHMYMVKPKTVVYISMWAIGRDPKTWKNPMEFVPERFLERPDINYKGQQFEYVPFGAGRRICAGINLGVTTVELALANLLYTFDWEPPAGMRFEDIDDETTNGLALQKKNALYIRPKKYMFP
As to B1, the Km in data set [1] was found to be 248.6 ± 51.9 µM.
